The text below walks through data of patent US20090054631A1.

This test concerns the target receptor for UNQ733 on the surface of lymphoma cell lines and B cells (unidentified) (human). As to the kind of experiment: flow cytometry on purified human peripheral blood B cells, 48 h with anti-CD40 and rIL-4.

Substance His8-tagged UNQ733 polypeptide (ligand) had a fold increase of binding on B cells stimulated with anti-CD40 and IL-4 against resting B cells of 2 to 5 fold.
